The values that follow come from patent publication US20140030266A1.

Assay [1] concerns the target MIF receptor CD74 ectodomain (CD74 73-232, sCD74) (UniProt P04233). Kind of assay: SPR (BIAcore 2000), sCD74 immobilized, ligand in solution. A general note: In SPR one partner is held on a chip, and binding of the other changes the refractive index at the surface.
The target is the same in assay [2]. The assay can be described thus: SPR (BIAcore 2000), sCD74 immobilized.
Assay [3] has the same target. Kind of assay: competition binding assay on sCD74, biotinylated human MIF as competitor.
Assay [4] has the same target. Kind of assay: competition binding assay on sCD74 with biotinylated human MIF as the competed ligand [panel A].

As for “human D-dopachrome tautomerase (D-DT), recombinant native-sequence protein (from UniProt P30046 2-118) (ligand)”, the Kd in assay [1] is 5.42 nM. In assay [2], this substance yielded an affinity relative to MIF (% lower than MIF) of 60, a fold higher binding rate than MIF of 3 fold, an off-rate constant (koff) of 0.00066 s⁻¹ and a kon of 120000 M⁻¹ s⁻¹. Further, the maximal effect on MIF binding compared with MIF in assay [3] came out at 50%. Besides, the IC50 (read off the curve) in assay [4] is 300 nM.

As a reminder, the Kd is the equilibrium constant for the complex coming apart. A higher Kd goes with weaker binding. As usually defined, the koff is a measure of how fast the partners let go of each other. A word on the kon: it is the rate constant with which the complex forms. Read a low kon as slow association.
